The data set can be described thus: label from the status in PepcDB records.
On to “MNLPFAPQSFAALLVMVMTLAHGSVSAQESFRVELGRDGETLGDMRPVFLKFESRPLPAISPLEVARRYQKLFESSDEPEVRIDALNRLNNIRNRSGEDVGFSEEREAAIYEEVLESYESILAKGSFSGRLDELLYQMAKAHALTGQPEQSIARLKQLVGLYPNSELVPEARFRIAEAAFSAGRYAEAEAGYRQLLEHDSHQELAAKARYMLGWSQFKQGNPAWARASASFTAVLDQQLPDHSALANPPAHSMDMLEDTFRVLALMASRQSDARTLADWLDGRESSAWQHLLYDRLADLHAVERRYERAVLVNNAFVSEFPGHTASPDFLAQSVSYWQLAGNTSKALAARDDYIQRLGAEARFQTMTPEQKGLWAQYSRFLADHYYATGTDLSSRNQTAAASEAWAKAAHYYERLAPRSEQAGELLHLAGDARLLAGDRTEAVRNFRAAAYDHRHGDSRDSAWAAIRIVREDLELASGENRTATLLVLSNEEQRYAEAFGPDQRLSGLRADLANRWYDLGEFERALHYASSTLTWERAGVTERYAAWLVTARIRQKNNEFGLAERAWRQALPLADEASQDAESQRRSLLEQLASAIYQQGEKAARAGDATLAVAHFQRVEGVMPGSEIAIKARYDAANTLLRASDWLAAINELQRFRIDYPSHELTPETSEKLVLAYQESGQGLKAAEELLNRSETLADPWPTRLRAAAIFHAEGDSASRNQLYKNWLAVAPTPDSADEHVQHQTMRQRLIESGDSVIAVREQLLARERASQWHSDGTLKWAADAALFFGAQTAERFAGIALVHPLEQALARKQAAMQQAQEYLQEAESFAGDGVRSEVLYRRAELYRTLASDLMSSEVPAELNEMEAMQYQMLLEEEAFPLEEEAMALHARNHERIPTEGFDEWIQRSLEALATMHPGRYDRQLRWMSWTTDTNQGGS”, for which the protein production result is on record as “failed”. In the case of “MNLPHLMSLASHLASHGFFCLRFTCKGLNIVHRIKAYKSVLNYLKTSGEYKLAGVFLGGRSMGSRAAASVMCHIEPDDGDDFVRGLICISYPLHHPKQQHKLRDEDLFRLKEPVLFVSGSADEMCEKNLLEKVAQKMQAPHKIHWIEKANHSMAVKGRSTNDVFKEINTQILFWIQEITEMDKKCH”, the protein production entry was “failed”. The value for “MNLTRLREKILNKSHSAMLIFSDINISYLSTFTGHAATILLTSKGNYLLTDYRYFEQAKTQASHFNVICRDRANQSLASLIEDLLFQDDCQSLSFESEHISVMQWQQIHQQISQLTKLSQIEAVSGAVEALRFIKSTSEISSIEQAAKIADTALAAMLNSVKAGVTERELAIELDYQMAKLGSEEVSFATILLFGERSALPHGIPSDKQLKLGDIILIDFGAVVNGYRSDMTRTFVFGQASAEQKHIYQLVQSAQQAAIDAVYEGVLGSHLYQQSANILLNSEYKKYAGEGLGHGVGLVLHEQPFIGPDCHTTIEKGCVITIEPGIYIPGWGGIRIEDDVVLTDEGLKILTKSPKGLIEL” was “failed”; that for “MNLVETAQAIEAGQVSLGIELGSTRIKAVLVTDDFNTIASGSYVWENRFEDGVWTYPLEEVWSGIQQSYTQMAADVQSKYHASLKHINAIGVSAMMHGYLAFDKNNELLVPFRTWRNNITGQSADELTKLFDFNIPQRWSIAHLYQAVLNDEDHVAKVDFITTLAGYVTWKLSGEKVLGVGDASGVFPIDEKTGSYDQAMLDKFSSLDNVKRYPWQIENILPSILPAGKIAGKLTADGANLLDASGNLEAGSVMAPPEGDAGTGMVGTNSVRKRTGNISVGTSAFSMNVLDKPLSKVYRDIDIVMTPDGSPVAMVHVNNCSSDINAWASIFSEFAARLGVDLKPDRLYETLFLESTKADANAGGLVNYSYQSGENITKIQAGRPLFVRTPNSKFSLPNFMLTQLYAAFAPLQIGMDILVNEEHVQTDVMIAQGGLFRTPVIGQQVLANALNIPITVMSTAGEGGPWGMAVLAAYAQRQTGANLEDFLDQEVFTNPESMTLSPEPAGVAGYQEFIKNYQAGLPVEAAAGEAISD” was “failed”. The value for “MNMAHTTTSMEIFGSPEQVWQLIGGFNSLPDWLPYIPSSKLTEGGRVRHLANPDGDTIIERLEVFNDKERYYTYSIMNAPFPVTNYLSTIQVKEGTESNTSLVEWSGTFTPVEVSDEEAINLFHGIYSDGLKALQQAFLDLEHHHHHH” was “not failed”; that for “MNMVQGSAFLAKLMKSADTFELKYDFSCELYRLSTYSTFPAGVPVSERSLARAGFYYTGVNDKVKCFSCGLMLDNWKQGDSPIEKHRKLYPSCSFVQTLNPANSLEASPQPPLPSTATSTMPSGFAASESTGYFSGSYSSFPSDPVNFRANQDCPAFSTSPYHFAMNTEKARLLTYQTWPLSFLSPAELAKAGFYYTGPGDRVACFACGGKLSNWDRKDDPLSEHRRHFPSCPFLKDVGQFTSQYTVSNLSMQTHAARVRTFSTWPSSALVHPQELASAGFYYTGHSDDVKCFCCDGGLRCWESGDDPWVEHAKWFPRCEYLIRIKGQEFVGQVQAGYPHLLEQLLSTSDSPEDETGEAAIVHLGPGENWEDAVMMNTPVVKAALDMGFSRSLVRQTVQRQILATGENYRTVSDLVIGLLDAEDEMREEQTEQEAEEEESDDLTLIRKNKMVLLQHLTPVTPILDCLLSARVITEQEYDAVKQKPHTLQARTLIDTVLAKGNTAATSFRNSLQEIDPGLYRDIFVRQNIRSLPTDDIAALPMEEQLRKLQEERTCKVCMDREVSLVFIPCGHLVVCKECAPSLRKCPICRGTIKGTVRTFLS” was “failed”; that for “MNNDNNTILGFDVNLICDFFLNTERQGPGSPEVTLKALSFIDNLTNKSLIADLGCGTGGQTMILAQHVPGKITGIDFFPGFIERFNKNAEKLNLQNRVKGIVGSMDDLSFEKDSLDLIWSEGAIYNIGFERGLKEWRNYLKPGGYLAVSESVWFTDQRPAEIHDFWMSAYTEIDTVPNKVAQIQKAGYIPVATFILPENCWIEHYFAPQAKAEEIFRRKHAGSRIVEELITSNHHEAELYSKYKAYYGYAFFICKKGFSLRR” was “failed”.

For the sequence “MNNGRRIGLIMIITGATLWGLSGPMIQWLFQHTNVSSIDFLTIRLLLAGIFILSFLLIKKQNIFQIWKHPRYSIQLIIFSILGMLGAQYAFIETVHISNAVTATLFQFLGPVLITMYVAFEQRKFPASMQLFAIIAALIGTYFIITNGSIENIVLSKEAIIFGLLTAIGFAFYTLHPASLIKECGTTVVIGWGMLIGGIALLIYNRSFGWNQFSQTLTLKTFSMLILIIISGTLSFLLYIGSLKYLAATETSILSSIEPLVAAIVSITWLNESFGTYQLLGGVCIVLSVIFLTMPQKETEPTYTTEQI”, the protein production entry was “failed”. As for “MNNIILMPILIPFLGAITLMLLPKRVIVQRVFALIFSGILVVATIGLVFYIRENGITTVNIGNWAAPFGITMVGDMLAVLLTATTSIVLFCVILYSFYTIGKPREKFLYYPAILFMIVGVNGSFLTGDIFNMFVFFEVMLMASYVLLVIGGTQVQLKATIKYLLINVVGSGFFVVAIALLYSMIGTLNMADISQKITDLNGANTGMISIVAVLFLFVFGLKAGLFPLYFWLPGSYFAPPIPVLALFGGLLTKVGVYAIIRTYTLFFSSLTDFVVPLLGILAIVTIILGVIGAISYYDMKTIVIYNIMIAIGVILFSVSIMTRESMTGAVFYLIHDMIIKAALFLIVGIVMAITGYSSVKKFSGLMSVKPSLGWIFFIATLGLAGIPPLSGFIGKLLIVEGAFSAGQMVGGIIILLSSLFVLMSLIKVFTKGFWGEKKGVFNLQIPYKKMLVPVVILLAISIGYGVFSNAIYPFIEQAVDPLVDPSVYIHAVIKE”, the protein production entry is given as “failed”. Turning to “MNNPITAVWEITMGCNMRCKHCGSSCENALEGELTTEEALKLCDELGELGFKWITLSGGEPTTRKDWHLIAKRLNENGIIPNMITNGWLMNEEIADKAVEAGINTVAISVDGLEETHDFIRKKGSFQRIMRAFDILRTRNIFYSAITTINNINIKELPRLRDILIEKGVRGWQLQLGLPMGNMAKNNELVAQPYHIDEVIEFSYKTVKEGYNIDVQLADCIGYFNLKEIEVRKNSYGGGRDGYNWTGCGAGKYSLGILHNGDILGCTSVRDRSFIEGNIRQTPIKEIWMNPDSFSWNRKMTKDKLSGLCKKCYFGERCLGGCSNTRLTMEGSVYSENRYCSYNVAISTAREQLDRIEDVDVMLSKAKKFADNGNFQLAEILLSRAIEKGCRDIGVFEFYGYISFMLGNYLDAKKANEEALKINPDSAYANKGMGLSLGRLGELEKGIEYLRKAIALSDENFTDPYYDLAVLLYENGRKEEALEVLEEGRKKYKSFIDTSKDLYDILTNAS”, the protein production result was “failed”. On to “MNNPSETSKPSMESGDGNTGTQTNGLDFQKQPVPVGGAISTAQAQAFLGHLHQVQLAGTSLQAAAQSLNVQSKSNEESGDSQQPSQPSQQPSVQAAIPQTQLMLAGGQITGLTLTPAQQQLLLQQAQAQAQLLAAAVQQHSASQQHSAAGATISASAATPMTQIPLSQPIQIAQDLQQLQQLQQQNLNLQQFVLVHPTTNLQPAQFIISQTPQGQQGLLQAQNLLTQLPQQSQANLLQSQPSITLTSQPATPTRTIAATPIQTLPQSQSTPKRIDTPSLEEPSDLEELEQFAKTFKQRRIKLGFTQGDVGLAMGKLYGNDFSQTTISRFEALNLSFKNMCKLKPLLEKWLNDAENLSSDSSLSSPSALNSPGIEGLSRRRKKRTSIETNIRVALEKSFLENQKPTSEEITMIADQLNMEKEVIRVWFCNRRQKEKRINPPSSGGTSSSPIKAIFPSPTSLVATTPSLVTSSAATTLTVSPVLPLTSAAVTNLSVTGTSDTTSNNTATVISTAPPASSAVTSPSLSPSPSASASTSEASSASETSTTQTTSTPLSSPLGTSQVMVTASGLQTAAAAALQGAAQLPANASLAAMAAAAGLNPSLMAPSQFAAGGALLSLNPGTLSGALSPALMSNSTLATIQALASGGSLPITSLDATGNLVFANAGGAPNIVTAPLFLNPQNLSLLTSNPVSLVSAAAASAGNSAPVASLHATSTSAESIQNSLFTVASASGAASTTTTASKAQ”, for which the protein production result is “failed”. With “MNNRELGRWQEHKHIGDYGWGIILCVIILCCIGMWAVYYACLHDLKVIDPVRTTMMQCLWYLVGALIATTMLHLSEKQLMQWAPIGYSIGMLLLILLLVLYSREYYVQTGAKSWFAIGTLTFQPVEVMKPLYILMMGRLIVQDQQWGPHNNFNADWRLTRRLVIYTFPIIVALKIINDFGTTLVFLTIFIGMLIVSPCRFSFLWRVLLVAGSIGVVLILLATSSTGQSLLSHIGFKLYQFDRINTWLNPSNGVSDQSYQLWQSMRAVGVGGLTGNGVTHNAVYVPVRESDMIFSVVGETTGFIGCSVLLIVYMYLFYLIFRSAFASRRRFYVYVSTGVAVMLAFHMFENIGMTIGLLPLTGIPLPFVSQGGSAIIGDFMGVGLVLATQYPNVRSIFSVPRIFH”, the protein production result is recorded as “failed”. Consider “MNNSINHKFHHISRAEYQELLAVSRGDAVADYIIDNVSILDLINGGEISGPIVIKGRYIAGVGAEYADAPALQRIDARGATAVPGFIDAHLHIESSMMTPVTFETATLPRGLTTVICDPHEIVNVMGEAGFAWFARCAEQARQNQYLQVSSCVPALEGCDVNGASFTLEQMLAWRDHPQVTGLAEMMDYPGVISGQNALLDKLDAFRHLTLDGHCPGLGGKELNAYITAGIENCHESYQLEEGRRKLQLGMSLMIREGSAARNLNALAPLINEFNSPQCMLCTDDRNPWEIAHEGHIDALIRRLIEQHNVPLHVAYRVASWSTARHFGLNHLDLLAPGKQADIVLLSDARKVTVQQVLVKGEPIDAQTLQAEESARLAQSAPPYGNTIARQPVSASDFALQFTPGKRYRVIDVIHNELITHSHSSVYSENGFDRDDVCFIAVLERYGQRLAPACGLLGGFGLNEGALAATVSHDSHNIVVIGRSAEEMALAVYQVIQDGGGLCVVRNGQVQSHLPLPIAGLMSTDTAQSLAEQIDALKAAARECGPLPDEPFIQMAFLSLPVIPALKLTSQGLFDGEKFVFTTLEVTE”, for which the protein production entry is given as “failed”.

Turning to “MNNTKTYSKTSIALHWIVGLAFIGVFIIGAYLSDLPRGPEKMELVALHKSFGVLILLIALARVFWRIKEGAIPPASVMPAWQEKVAKAVHGLLLLATLAMPLSGIAMNIGGGRALEVFGYTLVAAGEKVVWLQELGAAVHKTAPPIIIAIVLLHIAAVLKHHLIDKDATMARMLGRG”, the protein production result is reported as “failed”.

For the origin of these results see a protein production outcome set (Wang et al. 2014).
